Data from patent publication US20220332804A1 (CSL INNOVATION, published 2022).

Experiments:
Test in all cases: SPR, antibody captured, C2 as analyte;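 note: biacore SPR at 37 °C, anti-C2 mAbs captured via goat anti-human IgG on CM5 chips, double-referenced sensorgrams fit to a 1:1 kinetic or steady-state model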
human C2 S469A = biological target: T1, human C2 S469A (human, UniProt P06681 21-752)
T1 sequence: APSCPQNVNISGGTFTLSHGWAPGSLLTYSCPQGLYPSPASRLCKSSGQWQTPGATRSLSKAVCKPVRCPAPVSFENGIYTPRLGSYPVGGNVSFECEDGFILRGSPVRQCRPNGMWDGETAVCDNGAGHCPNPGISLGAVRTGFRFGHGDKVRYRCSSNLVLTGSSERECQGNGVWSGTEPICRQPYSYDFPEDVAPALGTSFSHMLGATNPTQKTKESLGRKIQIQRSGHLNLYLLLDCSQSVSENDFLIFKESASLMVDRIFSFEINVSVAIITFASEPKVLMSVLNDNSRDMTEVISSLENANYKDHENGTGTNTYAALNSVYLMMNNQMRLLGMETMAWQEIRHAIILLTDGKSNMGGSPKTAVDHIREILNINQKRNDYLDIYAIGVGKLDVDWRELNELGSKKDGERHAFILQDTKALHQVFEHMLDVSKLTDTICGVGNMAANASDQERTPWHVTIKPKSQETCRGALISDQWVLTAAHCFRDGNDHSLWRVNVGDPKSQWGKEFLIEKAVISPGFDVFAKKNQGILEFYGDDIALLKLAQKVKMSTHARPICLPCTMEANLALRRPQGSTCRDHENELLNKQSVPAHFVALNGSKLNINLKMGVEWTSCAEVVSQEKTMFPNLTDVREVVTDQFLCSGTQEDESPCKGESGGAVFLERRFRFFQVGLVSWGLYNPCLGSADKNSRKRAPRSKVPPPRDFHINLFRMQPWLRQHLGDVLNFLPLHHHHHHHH

human C2 L453A = biological target: T2, human C2 L453A (human, UniProt P06681 21-752)
T2 sequence: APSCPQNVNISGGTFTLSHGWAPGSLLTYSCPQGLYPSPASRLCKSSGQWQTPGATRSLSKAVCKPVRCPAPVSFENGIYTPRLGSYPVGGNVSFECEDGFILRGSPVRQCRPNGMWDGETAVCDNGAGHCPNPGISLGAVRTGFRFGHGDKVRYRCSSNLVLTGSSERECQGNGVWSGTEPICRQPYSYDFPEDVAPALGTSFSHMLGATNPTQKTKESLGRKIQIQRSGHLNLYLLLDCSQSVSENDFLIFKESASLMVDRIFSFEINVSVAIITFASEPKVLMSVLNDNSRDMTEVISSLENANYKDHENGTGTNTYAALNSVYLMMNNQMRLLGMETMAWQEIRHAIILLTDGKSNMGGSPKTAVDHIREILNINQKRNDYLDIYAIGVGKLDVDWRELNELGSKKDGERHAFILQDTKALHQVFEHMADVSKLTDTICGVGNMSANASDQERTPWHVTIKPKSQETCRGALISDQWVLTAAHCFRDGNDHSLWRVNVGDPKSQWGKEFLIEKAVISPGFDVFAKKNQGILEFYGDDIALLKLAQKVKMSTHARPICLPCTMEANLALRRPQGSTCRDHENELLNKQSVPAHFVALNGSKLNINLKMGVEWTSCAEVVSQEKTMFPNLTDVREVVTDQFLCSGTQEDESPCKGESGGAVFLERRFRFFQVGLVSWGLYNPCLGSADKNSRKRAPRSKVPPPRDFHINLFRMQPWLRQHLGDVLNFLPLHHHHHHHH

human C2 R510A = biological target: T3, human C2 R510A (human, UniProt P06681 21-752)
T3 sequence: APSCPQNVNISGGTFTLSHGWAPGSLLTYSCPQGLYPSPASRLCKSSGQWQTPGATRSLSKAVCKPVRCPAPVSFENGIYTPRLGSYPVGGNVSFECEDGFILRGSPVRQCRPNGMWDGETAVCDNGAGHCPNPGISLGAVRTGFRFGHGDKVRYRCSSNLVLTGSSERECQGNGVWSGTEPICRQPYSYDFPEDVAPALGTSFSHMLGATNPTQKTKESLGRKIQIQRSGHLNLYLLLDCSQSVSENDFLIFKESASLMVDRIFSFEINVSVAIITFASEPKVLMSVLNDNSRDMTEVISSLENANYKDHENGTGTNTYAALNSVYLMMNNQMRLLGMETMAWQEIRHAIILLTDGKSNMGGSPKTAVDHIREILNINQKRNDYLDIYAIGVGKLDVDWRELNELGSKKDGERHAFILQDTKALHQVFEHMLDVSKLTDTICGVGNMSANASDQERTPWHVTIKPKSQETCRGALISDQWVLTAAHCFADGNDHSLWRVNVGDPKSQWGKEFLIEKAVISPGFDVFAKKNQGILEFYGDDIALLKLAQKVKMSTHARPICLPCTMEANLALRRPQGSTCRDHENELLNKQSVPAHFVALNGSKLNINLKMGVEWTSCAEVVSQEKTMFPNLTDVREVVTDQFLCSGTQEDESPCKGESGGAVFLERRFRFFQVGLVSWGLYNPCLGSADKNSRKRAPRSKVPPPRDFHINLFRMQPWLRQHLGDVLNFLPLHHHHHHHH

human C2 K244A = biological target: T4, human C2 K244A (human, UniProt P06681 21-752)
T4 sequence: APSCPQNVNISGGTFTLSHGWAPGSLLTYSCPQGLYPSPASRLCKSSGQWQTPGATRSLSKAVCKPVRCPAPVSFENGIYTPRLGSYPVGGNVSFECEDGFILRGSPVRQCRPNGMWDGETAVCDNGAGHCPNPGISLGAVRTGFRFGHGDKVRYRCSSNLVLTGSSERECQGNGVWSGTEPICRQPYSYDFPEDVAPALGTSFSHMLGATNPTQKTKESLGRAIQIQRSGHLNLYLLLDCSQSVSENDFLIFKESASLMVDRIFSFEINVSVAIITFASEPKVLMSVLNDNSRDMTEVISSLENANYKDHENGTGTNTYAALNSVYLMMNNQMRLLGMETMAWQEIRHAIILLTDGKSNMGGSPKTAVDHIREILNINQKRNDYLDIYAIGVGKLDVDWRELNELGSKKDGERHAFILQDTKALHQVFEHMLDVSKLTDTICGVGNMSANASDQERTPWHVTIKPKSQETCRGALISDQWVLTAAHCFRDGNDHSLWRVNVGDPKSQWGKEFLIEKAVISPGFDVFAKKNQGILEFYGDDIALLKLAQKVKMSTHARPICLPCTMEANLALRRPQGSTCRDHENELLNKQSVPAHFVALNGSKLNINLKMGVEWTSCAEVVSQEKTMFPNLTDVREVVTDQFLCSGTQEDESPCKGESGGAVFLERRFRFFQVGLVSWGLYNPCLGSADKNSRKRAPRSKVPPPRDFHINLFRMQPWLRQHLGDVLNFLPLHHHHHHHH

B1: RF16-226 (antibody, human IgG4 S228P, lambda)
heavy: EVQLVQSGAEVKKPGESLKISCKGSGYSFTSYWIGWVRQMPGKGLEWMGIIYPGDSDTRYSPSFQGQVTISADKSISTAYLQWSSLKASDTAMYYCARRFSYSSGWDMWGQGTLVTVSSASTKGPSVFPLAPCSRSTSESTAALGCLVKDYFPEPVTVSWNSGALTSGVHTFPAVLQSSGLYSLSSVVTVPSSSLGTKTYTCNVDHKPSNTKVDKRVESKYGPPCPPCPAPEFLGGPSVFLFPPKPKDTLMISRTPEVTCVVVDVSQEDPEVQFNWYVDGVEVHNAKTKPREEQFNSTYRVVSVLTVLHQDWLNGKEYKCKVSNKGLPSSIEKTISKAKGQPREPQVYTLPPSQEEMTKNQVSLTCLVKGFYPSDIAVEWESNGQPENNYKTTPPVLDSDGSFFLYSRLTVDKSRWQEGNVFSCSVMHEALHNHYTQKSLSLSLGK
light: SYELTQPPSVSVSPGQTARITCSGDALTSKYVAWYQQKSGLAPLLVIYEDTRRPSGIPAKFSGSSSGSVATLTISGAHGDDEADYYCYSTDASGHQRVFGGGTKLTVLSQPKAAPSVTLFPPSSEELQANKATLVCLISDFYPGAVTVAWKADGSPVKAGVETTKPSKQSNNKYAASSYLSLTPEQWKSHRSYSCQVTHEGSTVEKTVAPTECS
notes: pH-dependent anti-C2 antibody from a phage display library; also called WT
Kd (human C2 S469A): 28.2 nM | Kd (human C2 L453A): 29.9 nM | Kd (human C2 R510A): 110 nM | Kd (human C2 K244A): 22.7 nM
